Consider 10 molecules from PMC4335299 (Genes & Development, 2015).

Data set [1] deals with Bacillus megaterium TnrA, full length (Bacillus megaterium). Description: crystal structure.
For data set [2], the target named is Bacillus subtilis GlnK, wild type (Bacillus subtilis). In words: SAXS.
For data set [3], the target named is Bacillus subtilis TnrA, full length (Bacillus subtilis) (UniProt Q45666). In words: ITC.
The target of data set [4] is Bacillus subtilis GlnK, wild type (Bacillus subtilis). In words: crystal structure.
Another data set has as its target T1, GS(E424K) (Bacillus subtilis, UniProt P12425 1-444, E424K).
T1 sequence (looked up): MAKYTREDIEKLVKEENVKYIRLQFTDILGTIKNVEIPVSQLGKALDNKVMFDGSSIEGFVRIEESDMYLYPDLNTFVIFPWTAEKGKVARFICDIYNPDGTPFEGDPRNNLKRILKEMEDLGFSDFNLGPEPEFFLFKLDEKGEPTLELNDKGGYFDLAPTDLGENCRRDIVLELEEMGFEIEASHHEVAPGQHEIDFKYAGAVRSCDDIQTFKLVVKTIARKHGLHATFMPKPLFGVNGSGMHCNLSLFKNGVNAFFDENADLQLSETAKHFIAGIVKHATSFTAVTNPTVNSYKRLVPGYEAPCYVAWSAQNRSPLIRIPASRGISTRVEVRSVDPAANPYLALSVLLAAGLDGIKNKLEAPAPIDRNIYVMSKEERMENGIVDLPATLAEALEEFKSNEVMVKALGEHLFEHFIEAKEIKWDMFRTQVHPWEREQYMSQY
Description: fluorescence polarisation. (Polarisation of emitted light reports the rotation of a fluorescent probe.)

The next data set concerns the target T2, TnrA;GlnK (Bacillus subtilis;Bacillus subtilis, UniProt Q45666;Q07428 1-110;1-116, |).
T2 sequence 1: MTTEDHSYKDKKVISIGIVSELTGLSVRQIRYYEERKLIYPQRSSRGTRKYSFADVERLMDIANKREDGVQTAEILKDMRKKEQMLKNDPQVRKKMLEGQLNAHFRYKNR
T2 sequence 2: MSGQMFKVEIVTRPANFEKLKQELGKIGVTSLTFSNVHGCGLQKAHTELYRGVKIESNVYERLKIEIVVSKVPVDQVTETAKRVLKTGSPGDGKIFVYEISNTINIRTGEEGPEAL
In words: SAXS.

The target in data set [5] is T3, Bacillus subtilis glutamine synthetase, wild type, full length (Bacillus subtilis, UniProt P12425 1-444).
T3 sequence (looked up): T1 sequence (looked up) with K424E
In words: crystal structure.

The target in data set [6] is T4, TnrA (Bacillus megaterium, UniProt G2RUZ1 1-108).
T4 sequence: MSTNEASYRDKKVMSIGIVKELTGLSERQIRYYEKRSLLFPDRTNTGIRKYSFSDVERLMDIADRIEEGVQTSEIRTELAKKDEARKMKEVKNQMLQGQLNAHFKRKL
In words: X-ray crystallography.

For another data set, the target named is T5, GlnR FL (Bacillus subtilis, UniProt P37582 1-135).
T5 sequence: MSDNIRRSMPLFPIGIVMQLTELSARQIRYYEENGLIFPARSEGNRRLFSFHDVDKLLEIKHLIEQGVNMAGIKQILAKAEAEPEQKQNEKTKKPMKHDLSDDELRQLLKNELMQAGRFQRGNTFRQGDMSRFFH
In words: fluorescence polarization.

Another data set addresses T6, GlnRΔ18 (Bacillus subtilis, UniProt P37582 1-117, del118-135).
T6 sequence: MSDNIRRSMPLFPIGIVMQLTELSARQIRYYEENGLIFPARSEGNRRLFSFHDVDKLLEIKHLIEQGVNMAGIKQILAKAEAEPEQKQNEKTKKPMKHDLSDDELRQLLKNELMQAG
Description: fluorescence polarization.

Data set [7] has as its target T7, TnrA (Bacillus subtilis, UniProt Q45666 1-110).
T7 sequence: T2 sequence 1
Description: fluorescence polarization.

Data set [8] deals with T3, Bacillus subtilis glutamine synthetase, …. In words: crystal structure. The source holds these as a separate data set.
The data set “crystal structure” concerns the molecule itself. In words: crystal structure.

Where a chain is given by its changes, count along the chain named. Numbers in names are those of the source. Read-outs that look alike come from different tables or passages of the source.

One may read the stoichiometry N as a count of units in the complex or per binding partner. Molecule “Bacillus megaterium TnrA, full length (natural protein)” came in with a stoichiometry N in data set [1] of 2.
Turning to “Bacillus subtilis GlnK, wild type (natural protein)”, the stoichiometry N in data set [2] and in [4] was 3 each time. The same molecule registered a stoichiometry N (GlnK subunit per TnrA subunit) in data set [3] of 0.5.

B1: TnrA(K108E) (natural protein, Bacillus subtilis, UniProt Q45666 1-110, looked up)
chain: T2 sequence 1 with K108E
For the molecule B1, in the data set with GS(E424K), the binding result is recorded as “binds”.

B2: 17mer SAXS (dsDNA)
DNA 1: TGTCAGATAATCTGACA
DNA 2: TGTCAGATTATCTGACA
As for B2, in the data set with TnrA;GlnK, the binding result is “binds”.
With RFQRGNTFRQGDMSRFFH [GlnR C-terminal peptide], the binding result in data set [5] is given as “binds”.

B3: 21mer site (crystal) (dsDNA)
DNA 1: CGTGTAAGATTTCCTGACACG
DNA 2: CGTGTCAGGAAATCTTACACG
As to B3, in the data set with TnrA [6], the binding result is on record as “binds”.

B4: 21mer FP (dsDNA)
DNA 1: CGTGTAAGATTTCCTGACACG
DNA 2: CGTGTCAGGAAATCTTACACG
What is called Kd is the constant that tells how readily two partners part at equilibrium. Low readings indicate a tighter complex, high ones a looser complex. For the molecule B4, in the data set with GlnR FL, the binding signal was more than 10 fold weaker than GlnRΔ18. The Kd with GlnRΔ18 worked out at 6 ± 0.9 nM; in the data set with TnrA [7], 11.6 ± 1.8 nM.
As for EILKDMRKKEQMLKNDPQVRKKMLEGQLNAHFRYKNR (domain or fragment, Bacillus subtilis, UniProt Q45666 74-110, looked up) [TnrA(74–110)], in data set [8], the binding result is given as “binds”.

B5: GlnRΔ18 (domain or fragment, Bacillus subtilis, UniProt P37582 1-117, looked up)
chain: T6 sequence
As for B5, the “stoichiometry N” value in the data set “crystal structure” amounted to 2.

B6: 17mer FP (dsDNA)
DNA 1: TGTAAGATTTCCTGACA
DNA 2: TGTCAGGAAATCTTACA
With B6, the figures for the dissociation constant Kd with GlnRΔ18 and in the data set with TnrA [7] were 8.1 ± 0.3 nM and 15.7 ± 0.9 nM, respectively.
